± gives the standard deviation of the averaged measurements.
tested on: ATP; assay: switch fluorescence ratio, 500 uM ATP over buffer (Cy3 cluster intensity, sum of 5 cycles each) (fold (ratio)); higher = stronger signal-on switching upon ATP binding; sequences stand for … in TCGTCGGCAGCGTCAGATGTGTATAAGAGACAGTTTTTTTTTTTTTTTTTTTTTTTTT…TC; conditions: aptamer strand: ATP DNA aptamer (quencher-CACCTGGGGGAGTATTGCGGAGGAAGG + anchor), 100 nM annealed; ATP concentration: 500 uM
Method in brief: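 Cy3-labelled switching-strand clusters on a modified Illumina MiSeq flow-cell were annealed to 100 nM quencher-labelled ATP aptamer, imaged in selection buffer, then imaged after 15 min with 500 uM ATP at 22 °C. Five buffer/ATP cycles ran, with NaOH stripping and re-annealing between them. The fluorescence ratio is summed target-cycle over summed buffer-cycle Cy3 intensity per cluster, averaged per switch-domain sequence. Clusters outside 100-1000 RFU were excluded.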
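Further: ATP exposure 15 min at 22 °C before imaging.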

| Sequence | switch fluorescence ratio |
| --- | --- |
| GGCTCGTAGG | 1 ± 0.024 |
| TATATTAGAG | 1.01 ± 0.0023 |
| GGGAGCGCGT | 1.02 ± 0.056 |
| CGGGGGAGTA | 0.996 ± 0.018 |
| CATTCGTCGC | 1.12 ± 0.026 |
| TCGGCCGTCC | 1.056 ± 0.009 |
| GTTTTGAAAA | 0.949 ± 0.019 |
| CGAAGTACAT | 1.16 ± 0.0019 |
| TGTCATGTAT | 0.987 ± 0.021 |
| TTGGTTACAC | 1.006 ± 0.0013 |
| AATGGAGATT | 0.985 ± 0.031 |
| TATGGGTGCT | 1.06 ± 0.046 |
| GACGTTGCTA | 1.06 ± 0.019 |
| CCGTGTGGGT | 1.01 ± 0.018 |
| TTCTTTGGAT | 1.03 ± 0.028 |
| CAATTTGATG | 0.979 ± 0.05 |
| GTGAGATCGG | 0.991 ± 0.029 |
| TGAGTTAGGC | 1.04 ± 0.054 |
| CGTTAGGTAT | 0.969 ± 0.033 |
| GAGGTGTAGC | 1.01 ± 0.028 |
| CCAATGGTGA | 1.16 ± 0.068 |
| GTGTGTGGCA | 1.03 ± 0.038 |
| GACTTAGGTA | 0.975 ± 0.027 |
| TTTCAGGGGG | 1.05 ± 0.091 |
| AGTTCCTTAG | 1.05 ± 0.043 |

| Sequence | switch fluorescence ratio |
| --- | --- |
| CGTATTTCTT | 0.989 ± 0.021 |
| GGTATGGACA | 0.997 ± 0.013 |
| ATAATGGTTG | 1.04 ± 0.043 |
| GTGGGGAGTT | 0.99 ± 0.023 |
| GACGTAAAAG | 1.097 ± 0.0096 |
| TTTTAAATCT | 1.03 ± 0.019 |
| ATATTTTAGG | 0.996 ± 0.031 |
| TGCGCCCGGC | 1.031 ± 0.0027 |
| ACTATTATTT | 0.9887 ± 0.0022 |
| GATTACAGTG | 1.02 ± 0.047 |
| AATAGGACGG | 1.03 ± 0.022 |
| TCTGGTCATG | 0.995 ± 0.014 |
| TATAAGGATC | 0.982 ± 0.057 |
| TAAATTGGTA | 1.04 ± 0.016 |
| GAGTAGGAGC | 1.02 ± 0.033 |
| ATGAGGGT | 1.01 ± 0.015 |
| TTGGGTCAGG | 1.02 ± 0.028 |
| TAAATCCTTT | 1 ± 0.053 |
| CTATAACAAT | 1.02 ± 0.021 |
| TGTTTCTTGA | 1.01 ± 0.058 |
| TTTATGGTTG | 1.02 ± 0.064 |
| AATCGGTGCG | 0.986 ± 0.049 |
| TGGTATCGGA | 0.977 ± 0.021 |
| TAATGGTTGC | 0.996 ± 0.014 |
| ACCGTTGGGG | 1.04 ± 0.02 |

| Sequence | switch fluorescence ratio |
| --- | --- |
| GATCATAAAA | 1.02 ± 0.017 |
| TTTAGAAAGT | 1.028 ± 0.0052 |
| CAGTGACTTT | 1.022 ± 0.0014 |
| GTAGTGTGGT | 0.999 ± 0.012 |
| TCTTTATTAA | 0.989 ± 0.011 |
| AGTGGGGCGC | 1.29 ± 0.4 |
| TGCATTAGGG | 0.993 ± 0.046 |
| GGTCATATGC | 1.04 ± 0.013 |
| TTTTTAAGTC | 0.985 ± 0.026 |
| CCTGGGGCCA | 1.03 ± 0.038 |
| AGCGGATTCG | 0.969 ± 0.053 |
| ATCGAAACCC | 1.05 ± 0.046 |
| TTACAATTTT | 0.985 ± 0.019 |
| GTTCAGTAGG | 0.9677 ± 0.0077 |
| ATATGAATAG | 1.01 ± 0.018 |
| ATCACGGGAA | 1.055 ± 0.0074 |
| CTTGAGTTAG | 1.015 ± 0.0066 |
| CGATAGCAGC | 2.43 ± 0.52 |
| GTTTTCACGT | 1.01 ± 0.013 |
| TCAAAGTGTA | 0.968 ± 0.064 |
| CATGAGGGGG | 1.01 ± 0.059 |
| ACCCGGCTTA | 1.19 ± 0.22 |
| GGAAACTTTG | 1.04 ± 0.11 |
| CATGTAATTG | 1.02 ± 0.015 |
| TTTAACTAGC | 1.034 ± 0.0063 |

| Sequence | switch fluorescence ratio |
| --- | --- |
| GAATGGGGGA | 1.02 ± 0.019 |
| GAGATTGCGG | 0.9849 ± 0.0012 |
| GTGAAGGGTA | 0.985 ± 0.0081 |
| GGATTTGCCT | 0.997 ± 0.041 |
| AGGCGCGGTG | 1.03 ± 0.0079 |
| CGATCCGGCG | 1.08 ± 0.16 |
| TCTGATGCGT | 1.03 ± 0.0038 |
| TTGGTGTCGG | 0.974 ± 0.036 |
| TTAATATTCT | 0.969 ± 0.065 |
| AGATTCATTT | 0.984 ± 0.021 |
| CTGTTTGTTG | 0.9707 ± 0.0013 |
| AGGACGTTGG | 0.963 ± 0.034 |
| TTCGGGTTAA | 1.05 ± 0.017 |
| GAAGTTTTGT | 1.016 ± 0.0088 |
| TATTTTGCCT | 1.036 ± 0.01 |
| AGTTTCTTGT | 0.987 ± 0.03 |
| AAGAGGTAGT | 1.02 ± 0.015 |
| AAGATGTTAG | 0.9926 ± 0.0062 |
| ACTAATATTG | 1.032 ± 0.0054 |
| TAAGCGCGGC | 1.055 ± 0.0079 |
| CAGATGCAGA | 1.065 ± 0.0071 |
| TAGAGGGTTG | 0.969 ± 0.02 |
| ATCGGTAATT | 0.997 ± 0.029 |
| GGGAGGCTTC | 1 ± 0.021 |
| TGTGCATCT | 1.01 ± 0.015 |

| Sequence | switch fluorescence ratio |
| --- | --- |
| TCTATTTGTG | 0.966 ± 0.02 |
| ACTTATATAG | 1.012 ± 0.0065 |
| AAAGGTTGCT | 1.007 ± 0.01 |
| GCTGGGGGGG | 1.02 ± 0.037 |
| TTTATAAGGA | 0.997 ± 0.037 |
| AGTTTGTGTC | 0.965 ± 0.12 |
| TGTGAAATAG | 1.02 ± 0.028 |
| TTGTTGGCCG | 0.9637 ± 0.0078 |
| TTTTTCGGCA | 1.31 ± 0.43 |
| TCCACGATTA | 1.108 ± 0.011 |
| TTCGAAGGGT | 1.09 ± 0.1 |
| AATTACGGGT | 1 ± 0.021 |
| AGCTGGCCCT | 1 ± 0.013 |
| GGTATAAAGG | 0.996 ± 0.014 |
| AGGGGAGGAG | 0.974 ± 0.017 |
| GCGATACTGT | 3.08 ± 0.17 |
| ACTCGGGCTA | 1.59 ± 0.61 |
| CAATGAACAC | 1.04 ± 0.031 |
| GGGATCTACA | 1.03 ± 0.024 |
| GAGGCCATTT | 1.01 ± 0.046 |
| TCTTTCACGC | 1.09 ± 0.085 |
| TATTTTTGGA | 0.981 ± 0.043 |
| TTGGGGAGTG | 0.988 ± 0.017 |
| GGGGCCAAGT | 0.981 ± 0.037 |
| CCGGTTAGGG | 0.991 ± 0.029 |

| Sequence | switch fluorescence ratio |
| --- | --- |
| TTTGTAAGCC | 1.06 ± 0.011 |
| TAAAATAGGG | 1.01 ± 0.018 |
| TTTACAGATT | 0.982 ± 0.023 |
| TAGTCTTGGG | 1.001 ± 0.0026 |
| ATCGGTGAGG | 0.971 ± 0.03 |
| ATACGAAGGG | 0.985 ± 0.059 |
| AGCCGGCGGT | 1.02 ± 0.019 |
| CAAAAGTGGT | 1.01 ± 0.018 |
| TTGTGGATTA | 1 ± 0.027 |
| TCTGGTAATT | 1 ± 0.02 |
| ACATAAGTGG | 1.01 ± 0.011 |
| CGTGATTTA | 0.961 ± 0.017 |
| AGGACAGGTG | 1.33 ± 0.055 |
| GCAGACATAG | 0.983 ± 0.025 |
| GGATGAGGCA | 1.02 ± 0.022 |
| TTGATTCATG | 0.999 ± 0.04 |
| ACTGTTGGCG | 0.965 ± 0.067 |
| CGGCAGTGTG | 1.01 ± 0.048 |
| GATGGTGAGA | 1.02 ± 0.065 |
| AAAATTGAAA | 0.988 ± 0.073 |
| TTGTAATTCT | 1.167 ± 0.0018 |
| TCATGGAGGC | 1.02 ± 0.041 |
| TTCCACGTTT | 1.11 ± 0.12 |
| GACGGGGAGA | 1.06 ± 0.038 |
| GTTGGTTACA | 1.008 ± 0.0065 |

| Sequence | switch fluorescence ratio |
| --- | --- |
| TTTCGTATGG | 1 ± 0.057 |
| GGCATTGGCA | 0.995 ± 0.041 |
| CTGAGGCCCG | 0.984 ± 0.05 |
| TGAAAGATGT | 1.01 ± 0.035 |
| ACGGTGCCAA | 1.02 ± 0.034 |
| TGTTCGGTCG | 1.005 ± 0.0014 |
| CGGTACGGGT | 0.992 ± 0.025 |
| AAAAAAATGC | 0.974 ± 0.037 |
| TTGGTGATGT | 0.994 ± 0.044 |
| ACTTATTGGG | 1.03 ± 0.011 |
| AGACGTTTAA | 1.002 ± 0.0035 |
| CAAGTCCATT | 1.01 ± 0.034 |
| TTGGGGTCGA | 0.951 ± 0.04 |
| GGGGATGTGG | 0.99 ± 0.037 |
| GGTGGGGCGC | 1.01 ± 0.035 |
| AAGGGTTGTT | 1.01 ± 0.032 |
| TTGGAGTTTT | 1.01 ± 0.038 |
| TTTGAAAATA | 0.962 ± 0.018 |
| GGGAATTTTA | 1.01 ± 0.012 |
| CCGGGCTCTG | 1.06 ± 0.013 |
| TTTGCGGACC | 1.05 ± 0.025 |
| GTTCAAAATT | 1.03 ± 0.036 |
| CCTCCAGGGT | 2.5 ± 0.92 |
| GCGAGAGCTG | 0.992 ± 0.017 |
| TTCCGGAGAT | 1.43 ± 0.34 |

| Sequence | switch fluorescence ratio |
| --- | --- |
| AGTAGATGGC | 1.02 ± 0.053 |
| TTTGGGATTA | 0.983 ± 0.041 |
| TTTGTTACGT | 1.04 ± 0.024 |
| GGAATTATGA | 0.995 ± 0.024 |
| TATAGTCTCG | 1.01 ± 0.019 |
| TACTTAGGAT | 1.02 ± 0.044 |
| ATTTTCTTTT | 1.06 ± 0.079 |
| GGTTAGGAGT | 0.99 ± 0.0081 |
| ATCTGAGTTA | 1.03 ± 0.058 |
| ATCTAGGTAT | 1 ± 0.029 |
| GAGGCGGGGA | 1.01 ± 0.03 |
| ATTTCATGCG | 1.03 ± 0.023 |
| GTTCTTACTT | 0.973 ± 0.059 |
| AGAGTTCCGG | 1 ± 0.029 |
| TGAGGTCAGA | 1.03 ± 0.013 |
| ATCTTTTTGT | 1.014 ± 0.005 |
| GCGAAAAAGG | 0.997 ± 0.035 |
| TTTGTCCCTT | 1.01 ± 0.041 |
| CGGAAGCGGG | 1.02 ± 0.038 |
| CGTAGCATCG | 1.1 ± 0.038 |
| ATCACGGTGC | 1.1 ± 0.061 |
| AGCTGAGTAA | 1.036 ± 0.0085 |
| ATGTACGATA | 1.14 ± 0.043 |
| TAAAACGCTC | 1.07 ± 0.073 |
| CAGGATTCTG | 1.03 ± 0.059 |
